Test system: Escherichia coli TOP10
Experiment: shrunken log2 fold change of peptide-encoding DNA abundance (4.5 h post-induction vs induction); higher = less antimicrobial activity (less host growth inhibition)
Details: time post-induction: 4.5 h; library: site-saturation at positions 5, 18, 19, 20
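Note: peptides expressed intracellularly from a pBAD plasmid library in pooled LB shake-flask culture, induced with 0.3% L-arabinose, DNA abundance read by NGS, three biological replicates, DESeq2 with apeglm shrinkage.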

Row | Sequence | shrunken log2 fold change
1 | RRIRPRPPRLPRPRPRPIHEPRP | 0.152
2 | RRIRKRPPRLPRPRPRPIFVPRP | 0.471
3 | RRIRRRPPRLPRPRPRPNYDPRP | -0.187
4 | RRIRIRPPRLPRPRPRPEPMPRP | 0.132
5 | RRIRKRPPRLPRPRPRPQDKPRP | -0.182
6 | RRIRHRPPRLPRPRPRPQSCPRP | -0.0062
7 | RRIRERPPRLPRPRPRPNVSPRP | -0.00968
8 | RRIRGRPPRLPRPRPRPMCFPRP | 0.716
9 | RRIRMRPPRLPRPRPRPESAPRP | 2.73
10 | RRIRDRPPRLPRPRPRPHICPRP | -0.205
11 | RRIRERPPRLPRPRPRPDSAPRP | -0.213
12 | RRIRFRPPRLPRPRPRPNCNPRP | -0.469
13 | RRIRTRPPRLPRPRPRPGPYPRP | -0.159
14 | RRIRVRPPRLPRPRPRPVQFPRP | -0.488
15 | RRIRVRPPRLPRPRPRPFLLPRP | -0.769
16 | RRIRYRPPRLPRPRPRPRFQPRP | -0.201
17 | RRIRTRPPRLPRPRPRPFLSPRP | -0.195
18 | RRIRQRPPRLPRPRPRPLWHPRP | -0.107
19 | RRIRFRPPRLPRPRPRPDGSPRP | -0.0167
20 | RRIRIRPPRLPRPRPRPSPEPRP | -0.241

Row | Sequence | shrunken log2 fold change
21 | RRIRPRPPRLPRPRPRPWYWPRP | -0.161
22 | RRIRNRPPRLPRPRPRPECTPRP | 0.00282
23 | RRIRDRPPRLPRPRPRPESTPRP | -0.0182
24 | RRIRFRPPRLPRPRPRPKNSPRP | -0.533
25 | RRIRNRPPRLPRPRPRPQLIPRP | -0.0323
26 | RRIRNRPPRLPRPRPRPYESPRP | -0.829
27 | RRIRDRPPRLPRPRPRPVLIPRP | -0.0161
28 | RRIRFRPPRLPRPRPRPASSPRP | -0.204
29 | RRIRLRPPRLPRPRPRPWFRPRP | -0.252
30 | RRIRFRPPRLPRPRPRPNWIPRP | -0.426
31 | RRIRMRPPRLPRPRPRPAHCPRP | 0.352
32 | RRIRNRPPRLPRPRPRPESKPRP | -0.0938
33 | RRIRLRPPRLPRPRPRPHMQPRP | -0.556
34 | RRIRWRPPRLPRPRPRPQIAPRP | 0.141
35 | RRIRNRPPRLPRPRPRPRICPRP | 0.101
36 | RRIRWRPPRLPRPRPRPDSTPRP | -0.0382
37 | RRIRVRPPRLPRPRPRPEWIPRP | -0.0835
38 | RRIRLRPPRLPRPRPRPKWFPRP | 0.154
39 | RRIRFRPPRLPRPRPRPSDKPRP | -0.355
40 | RRIRKRPPRLPRPRPRPAHIPRP | -0.137

Row | Sequence | shrunken log2 fold change
41 | RRIRARPPRLPRPRPRPKTNPRP | 0.436
42 | RRIRWRPPRLPRPRPRPICNPRP | -0.0133
43 | RRIRHRPPRLPRPRPRPVTMPRP | -0.513
44 | RRIRYRPPRLPRPRPRPYIYPRP | -2.06
45 | RRIRARPPRLPRPRPRPCWEPRP | 0.755
46 | RRIRCRPPRLPRPRPRPLGQPRP | 0.16
47 | RRIRCRPPRLPRPRPRPAMMPRP | -0.0414
48 | RRIRWRPPRLPRPRPRPGSWPRP | 0.517
49 | RRIRYRPPRLPRPRPRPRLNPRP | -0.313
50 | RRIRQRPPRLPRPRPRPVVKPRP | -0.031
51 | RRIRIRPPRLPRPRPRPDMYPRP | -0.173
52 | RRIRERPPRLPRPRPRPAMSPRP | -0.0829
53 | RRIRDRPPRLPRPRPRPGVLPRP | -0.0992
54 | RRIRSRPPRLPRPRPRPYKMPRP | -0.425
55 | RRIRQRPPRLPRPRPRPFFIPRP | -0.365
56 | RRIRARPPRLPRPRPRPEQEPRP | 0.00961
57 | RRIRHRPPRLPRPRPRPHLAPRP | -0.0341
58 | RRIRCRPPRLPRPRPRPISAPRP | -0.142
59 | RRIRFRPPRLPRPRPRPYVLPRP | -0.332
60 | RRIRSRPPRLPRPRPRPMVMPRP | 0.0113

From the supplement of paper PMC9112550, “Optimization of the antimicrobial peptide Bac7 by deep mutational scanning” (BMC Biology, 2022)
